Reference: the supplement of paper PMC10065799, “High-throughput profiling of sequence recognition by tyrosine kinases and SH2 domains using bacterial peptide display” (eLife, 2023)

The sequences below were run on c-Src (assay: phosphorylation enrichment, bacterial display (enrichment ratio); higher = better substrate or ligand; peptides without Tyr show the background).
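Wherever SH2 binding enrichment of the phosphorylated peptide, bacterial display is given: peptide library displayed on the E. coli surface as eCPX fusions, selected cells deep-sequenced, score is each peptide's frequency after selection divided by its frequency in the input.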
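Wherever phosphorylation enrichment, bacterial display is given: 11-residue human phosphosite peptides and single-mutation variants displayed on the E. coli surface, counted by deep sequencing, each peptide's frequency after selection divided by its frequency in the unselected input library; frequency after pTyr selection over input frequency; kinase dosed for 20-30% of maximal phosphorylation in three min.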

Going from EQRRAYLEGTC [HLA-C_Y183_L180R] to DSDTDYGSGFP [RNASEH2A_Y206_L202S_YF], the phosphorylation enrichment rises from 0.45 to 0.494.

Going from LVRPPYSFLAL [FOXI1_Y126_S129L_YF] to MMVGAYSSLEG [ECPAS_Y470_T472S], the phosphorylation enrichment rises from 0.525 to 0.671.

Compared with KRAAIYNPVIF [RHO_Y301_S297R_YF], LHAAAYRNALA [UQCRC2_Y182] is lower in phosphorylation enrichment: 2.22 for the first, 0.398 for the second.

Going from AALLNYKAGRD [GRIN2A_Y737_V734L] to SHPSSYTTHPQ [NIPBL_Y195], the phosphorylation enrichment rises from 0.472 to 0.478.

Going from LTGIAYSLPHW [SLC22A14_Y291] to SLFNGYVFSGM [NEIL3_Y71_V76M_YF], the phosphorylation enrichment falls from 0.764 to 0.482.

First: LNEVGYDDIGG [VCP_Y203]
Second: PEADKYRLPFA [FGG_Y300_T303P_YF]
The phosphorylation enrichment of the first is higher: 0.812 for the first, 0.614 for the second.

First: HSDYQYGQRSQ [PKP2_Y168_S169G]
Second: QMQAAYQKVVA [HBD_Y131]
The phosphorylation enrichment of the first is higher: 0.402 for the first, 0.293 for the second.

Going from VDSAHYQLLET [DTX3L_Y385_K386Q] to LRAGVYREKDQ [DNM2_Y626_P627R], the phosphorylation enrichment falls from 0.705 to 0.448.

Going from LRVHSYKSMQP [DRC7_Y516] to RQEEEYKRFSE [SFSWAP_Y133_L136F], the phosphorylation enrichment rises from 0.55 to 0.554.

Compared with RNYDTYTAGLS [RHBDD1_Y264], TVLEPYTDPYY [ZC3H18_Y367_A368T] is lower in phosphorylation enrichment: 1.39 for the first, 0.845 for the second.

Compared with FGFPGYQCKHF [TIMP3_Y177_S179C_YF], CTLLPYFSARV [DGKE_Y269_YF] is lower in phosphorylation enrichment: 0.548 for the first, 0.43 for the second.

Going from VHLFAYDWISI [BEST1_Y227_G222V_YF] to KELAKYFKLHH [AK7_Y390_N389K_YF], the phosphorylation enrichment falls from 0.651 to 0.493.

First: IGRHAYGDQYR [IDH1_Y135]
Second: GLAELYEYKKK [CKAP5_Y1854]
The phosphorylation enrichment of the first is lower: 0.381 for the first, 0.489 for the second.

First: NPQKSYFICLF [WAS_Y83_R86C_YF]
Second: PTTKTYFPHFG [HBA1_Y43_D48G]
The phosphorylation enrichment of the first is lower: 0.504 for the first, 0.747 for the second.

Work on AHAGEYGAVAL [HBA1_Y25_E28V] yielded a phosphorylation enrichment of 2.95.

The sequences below were run against Grb2 SH2 (UniProt P62993) (assay: SH2 binding enrichment of the phosphorylated peptide, bacterial display (enrichment ratio); higher = better substrate or ligand; peptides without Tyr show the background).
Sequence of Grb2 SH2 (P62993 whole entry, looked up): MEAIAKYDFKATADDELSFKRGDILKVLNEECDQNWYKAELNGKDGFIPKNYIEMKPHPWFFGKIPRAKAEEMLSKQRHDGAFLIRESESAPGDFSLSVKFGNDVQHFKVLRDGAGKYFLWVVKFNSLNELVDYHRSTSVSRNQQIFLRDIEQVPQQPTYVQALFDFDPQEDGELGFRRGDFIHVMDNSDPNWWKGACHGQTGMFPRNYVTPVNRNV

Compared with EQRRAYLEGTC [HLA-C_Y183_L180R], DSDTDYGSGFP [RNASEH2A_Y206_L202S_YF] is lower in SH2 binding enrichment: 0.867 for the first, 0.705 for the second.

Compared with LVRPPYSFLAL [FOXI1_Y126_S129L_YF], MMVGAYSSLEG [ECPAS_Y470_T472S] is higher in SH2 binding enrichment: 0.713 for the first, 0.82 for the second.

First: KRAAIYNPVIF [RHO_Y301_S297R_YF]
Second: LHAAAYRNALA [UQCRC2_Y182]
The SH2 binding enrichment of the first is higher: 1.01 for the first, 0.691 for the second.

First: AALLNYKAGRD [GRIN2A_Y737_V734L]
Second: SHPSSYTTHPQ [NIPBL_Y195]
The SH2 binding enrichment of the first is higher: 0.861 for the first, 0.728 for the second.

Going from LTGIAYSLPHW [SLC22A14_Y291] to SLFNGYVFSGM [NEIL3_Y71_V76M_YF], the SH2 binding enrichment rises from 0.847 to 0.938.

Compared with LNEVGYDDIGG [VCP_Y203], PEADKYRLPFA [FGG_Y300_T303P_YF] is lower in SH2 binding enrichment: 0.974 for the first, 0.821 for the second.

Going from HSDYQYGQRSQ [PKP2_Y168_S169G] to QMQAAYQKVVA [HBD_Y131], the SH2 binding enrichment rises from 1.01 to 1.03.

Compared with VDSAHYQLLET [DTX3L_Y385_K386Q], LRAGVYREKDQ [DNM2_Y626_P627R] is lower in SH2 binding enrichment: 0.677 for the first, 0.646 for the second.

Going from LRVHSYKSMQP [DRC7_Y516] to RQEEEYKRFSE [SFSWAP_Y133_L136F], the SH2 binding enrichment rises from 1.25 to 1.27.

First: RNYDTYTAGLS [RHBDD1_Y264]
Second: TVLEPYTDPYY [ZC3H18_Y367_A368T]
The SH2 binding enrichment of the first is higher: 0.707 for the first, 0.516 for the second.

First: FGFPGYQCKHF [TIMP3_Y177_S179C_YF]
Second: CTLLPYFSARV [DGKE_Y269_YF]
The SH2 binding enrichment of the first is higher: 1.37 for the first, 0.791 for the second.

First: VHLFAYDWISI [BEST1_Y227_G222V_YF]
Second: KELAKYFKLHH [AK7_Y390_N389K_YF]
The SH2 binding enrichment of the first is higher: 1.3 for the first, 0.759 for the second.

Compared with IGRHAYGDQYR [IDH1_Y135], GLAELYEYKKK [CKAP5_Y1854] is higher in SH2 binding enrichment: 1.03 for the first, 1.26 for the second.

Compared with NPQKSYFICLF [WAS_Y83_R86C_YF], PTTKTYFPHFG [HBA1_Y43_D48G] is higher in SH2 binding enrichment: 0.988 for the first, 1.06 for the second.

Sequence AHAGEYGAVAL [HBA1_Y25_E28V] has an SH2 binding enrichment of 0.88.

Each sequence was assayed against SHP2-C SH2 in the same assay as above.

Compared with EQRRAYLEGTC [HLA-C_Y183_L180R], DSDTDYGSGFP [RNASEH2A_Y206_L202S_YF] is lower in SH2 binding enrichment: 0.756 for the first, 0.697 for the second.

Compared with LVRPPYSFLAL [FOXI1_Y126_S129L_YF], MMVGAYSSLEG [ECPAS_Y470_T472S] is lower in SH2 binding enrichment: 0.842 for the first, 0.77 for the second.

Compared with KRAAIYNPVIF [RHO_Y301_S297R_YF], LHAAAYRNALA [UQCRC2_Y182] is lower in SH2 binding enrichment: 1.19 for the first, 0.682 for the second.

Compared with AALLNYKAGRD [GRIN2A_Y737_V734L], SHPSSYTTHPQ [NIPBL_Y195] is lower in SH2 binding enrichment: 0.762 for the first, 0.723 for the second.

First: LTGIAYSLPHW [SLC22A14_Y291]
Second: SLFNGYVFSGM [NEIL3_Y71_V76M_YF]
The SH2 binding enrichment of the first is higher: 5.82 for the first, 1.1 for the second.

Going from LNEVGYDDIGG [VCP_Y203] to PEADKYRLPFA [FGG_Y300_T303P_YF], the SH2 binding enrichment falls from 1.04 to 0.517.

Going from HSDYQYGQRSQ [PKP2_Y168_S169G] to QMQAAYQKVVA [HBD_Y131], the SH2 binding enrichment falls from 1.1 to 0.418.

First: VDSAHYQLLET [DTX3L_Y385_K386Q]
Second: LRAGVYREKDQ [DNM2_Y626_P627R]
The SH2 binding enrichment of the first is higher: 0.541 for the first, 0.478 for the second.

Compared with LRVHSYKSMQP [DRC7_Y516], RQEEEYKRFSE [SFSWAP_Y133_L136F] is lower in SH2 binding enrichment: 0.957 for the first, 0.66 for the second.

Compared with RNYDTYTAGLS [RHBDD1_Y264], TVLEPYTDPYY [ZC3H18_Y367_A368T] is lower in SH2 binding enrichment: 0.572 for the first, 0.456 for the second.

Compared with FGFPGYQCKHF [TIMP3_Y177_S179C_YF], CTLLPYFSARV [DGKE_Y269_YF] is higher in SH2 binding enrichment: 0.703 for the first, 0.711 for the second.

Going from VHLFAYDWISI [BEST1_Y227_G222V_YF] to KELAKYFKLHH [AK7_Y390_N389K_YF], the SH2 binding enrichment falls from 1.36 to 0.635.

First: IGRHAYGDQYR [IDH1_Y135]
Second: GLAELYEYKKK [CKAP5_Y1854]
The SH2 binding enrichment of the first is lower: 0.681 for the first, 1.31 for the second.

Compared with NPQKSYFICLF [WAS_Y83_R86C_YF], PTTKTYFPHFG [HBA1_Y43_D48G] is lower in SH2 binding enrichment: 1.03 for the first, 0.792 for the second.

AHAGEYGAVAL [HBA1_Y25_E28V] was tested, and the SH2 binding enrichment was 0.6.

What follows are sequences tested against c-Src SH2 in the same assay as above.

Going from EQRRAYLEGTC [HLA-C_Y183_L180R] to DSDTDYGSGFP [RNASEH2A_Y206_L202S_YF], the SH2 binding enrichment rises from 0.456 to 0.494.

Compared with LVRPPYSFLAL [FOXI1_Y126_S129L_YF], MMVGAYSSLEG [ECPAS_Y470_T472S] is higher in SH2 binding enrichment: 0.547 for the first, 7.6 for the second.

First: KRAAIYNPVIF [RHO_Y301_S297R_YF]
Second: LHAAAYRNALA [UQCRC2_Y182]
The SH2 binding enrichment of the first is higher: 0.854 for the first, 0.559 for the second.

Compared with AALLNYKAGRD [GRIN2A_Y737_V734L], SHPSSYTTHPQ [NIPBL_Y195] is lower in SH2 binding enrichment: 0.523 for the first, 0.477 for the second.

Going from LTGIAYSLPHW [SLC22A14_Y291] to SLFNGYVFSGM [NEIL3_Y71_V76M_YF], the SH2 binding enrichment falls from 4.06 to 1.45.

Compared with LNEVGYDDIGG [VCP_Y203], PEADKYRLPFA [FGG_Y300_T303P_YF] is lower in SH2 binding enrichment: 12.2 for the first, 0.423 for the second.

First: HSDYQYGQRSQ [PKP2_Y168_S169G]
Second: QMQAAYQKVVA [HBD_Y131]
The SH2 binding enrichment of the first is lower: 0.567 for the first, 0.937 for the second.

Going from VDSAHYQLLET [DTX3L_Y385_K386Q] to LRAGVYREKDQ [DNM2_Y626_P627R], the SH2 binding enrichment falls from 6.34 to 0.427.

First: LRVHSYKSMQP [DRC7_Y516]
Second: RQEEEYKRFSE [SFSWAP_Y133_L136F]
The SH2 binding enrichment of the first is lower: 0.607 for the first, 0.609 for the second.

Compared with RNYDTYTAGLS [RHBDD1_Y264], TVLEPYTDPYY [ZC3H18_Y367_A368T] is higher in SH2 binding enrichment: 0.621 for the first, 1.28 for the second.

First: FGFPGYQCKHF [TIMP3_Y177_S179C_YF]
Second: CTLLPYFSARV [DGKE_Y269_YF]
The SH2 binding enrichment of the first is higher: 0.83 for the first, 0.523 for the second.

Going from VHLFAYDWISI [BEST1_Y227_G222V_YF] to KELAKYFKLHH [AK7_Y390_N389K_YF], the SH2 binding enrichment falls from 0.972 to 0.497.

Going from IGRHAYGDQYR [IDH1_Y135] to GLAELYEYKKK [CKAP5_Y1854], the SH2 binding enrichment rises from 0.657 to 0.671.

First: NPQKSYFICLF [WAS_Y83_R86C_YF]
Second: PTTKTYFPHFG [HBA1_Y43_D48G]
The SH2 binding enrichment of the first is higher: 0.602 for the first, 0.5 for the second.

AHAGEYGAVAL [HBA1_Y25_E28V] gave an SH2 binding enrichment of 0.486.
